We go through 1 molecule from patent US20050032221A1, “Dominant negative variants of methionine aminopeptidase 2 (MetAP2) and clinical uses thereof” (priority 2001, published 2005).

Data set [1] has as its system yeast map1Δ strain. The data set can be described thus: Yeast growth assay, map1Δ, expression under GAL1 promoter. The data set is classed as cell-based, yeast (S. cerevisiae). The settings on record: galactose plates, 4 days at 30° C. Here is the method:
A haploid yeast map1Δ strain was transformed to leucine prototrophy with p425GAL1/MAP2 wild-type (WT), p425GAL1/map2 (H174A), or p425GAL1 vector alone (V). Each strain was grown to mid-logarithmic phase at 30° C. in minimal synthetic raffinose medium lacking leucine. Approximately 2×10^5 cells (ABS600) were then streaked onto minimal synthetic plates lacking leucine and supplemented with (A) glucose or (B) galactose. Plates were incubated for 4 days at 30° C.
A haploid yeast map1Δ strain was transformed to leucine prototrophy with p425GAL1/MAP2 wild-type (WT), p425GAL1/map2 ([…]), p425GAL1/map2 (Δ2-57/H174A) or p425GAL1 vector alone (V). Each strain was grown to mid-logarithmic phase at 30° C. in minimal synthetic raffinose medium lacking leucine. […]
For relative growth comparison, strains were grown to mid-logarithmic phase in 5 ml of 2% raffinose minimal media lacking leucine and ˜2×10^5 cells (ABS600) were streaked onto SD/Leu^− or SG/Leu^− plates, then incubated for 4 days at 30° C. For quantitative comparison, a growth curve was obtained (FIG. 4). […] The ABS600 of each 1 mL culture was measured and diluted to an ABS600 of 0.2 in 5 mL of SG/Leu^−. Each 5 mL culture was then grown aerobically at 30° C. and the ABS600 was measured in triplicate at one-hour intervals.

Data set [2] deals with peptide substrate (MGMM). As to the kind of experiment: MetAP activity assay of immunopurified HA-tagged yeast MetAP2 with Met-Gly-Met-Met. In kind it is biochemical. The settings on record: immunopurified HA-tagged enzyme from map1Δ; 2 mM Met-Gly-Met-Met. How it is done: […]. Approximately 2 μg of purified wild-type MetAP2 (WT) and MetAP2 (H174A) was separated on a 10% SDS-PAGE gel and visualized with coomassie blue staining. Specific activity for the wild-type MetAP2 was 11±0.5 U/mg.
The purification of HA-tagged wild-type and mutant yeast MetAP2 from a yeast map1Δ strain (Klinkenberg et al., Arch. Biochem. Biophys. 347:193-200, 1997) was performed as previously described (Li and Chang, 1995) with slight modifications. A 1-liter yeast culture was grown aerobically at 30° C. in SG/Leu^− medium. Cells were collected at an OD600˜1-2 by centrifugation at 1500×g for 5 min. The pellet was rinsed with buffer XL (10 mM Hepes, pH 7.4; 1.5 mM MgCl2, 10% Glycerol [v/v]) plus 100 mM NaCl and fresh protease inhibitors (1 μg/ml aprotinin, 1 μg/ml leupeptin, 0.7 μg/ml pepstatin A, 1 mM phenylmethylsulfonyl fluoride). Cells were disrupted by vortexing (5 cycles of 1 min vortexing, 1 min on ice) with 0.5-mm acid-washed glass beads (Biospec Products, Inc.,). The lysate was then cleared at 10,000×g for 20 min at 4° C. Cleared lysate was applied to a Protein-Sepharose G column (Pharmacia) previously rinsed and pre-equilibrated with buffer XL and an anti-hemagglutinin epitope ([…]; SEQ ID NO:23) monoclonal antibody (BabCO). After loading, the column was washed with buffer XL until OD280<0.01. […]

B1: wild-type MetAP2: wild-type yeast MetAP2 with N-terminal hemagglutinin tag (SEQ ID NO:14) (protein, listed as Saccharomyces sp.)
chain: MTDAEIENSPASDLKELNLENEGVEQQDQAKADESDPVESKKKKNKKKKKKKSNVKKIELLFPDGKYPEGAWMDYHQDFNLQRTTDEESRYLKRDLERAEHWNDVRKGAEIHRRVRRAIKDRIVPGMKLMDIADMIENTTRKYTGAENLLAMEDPKSQGIGFPTGLSLNHCAAHFTPNAGDKTVLKYEDVMKVDYGVQVNGNIIDSAFTVSFDPQYDNLLAAVKDATYTGIKEAGIDVRLTDIGEAIQEVMESYEVEINGETYQVKPCRNLCGHSIAPYRIHGGKSVPIVKNGDTTKMEEGEHFAIETFGSTGRGYVTAGGEVSHYARSAEDHQVMPTLDSAKNLLKTIDRNFGTLPFCRRYLDRLGQEKYLFALNNLVRHGLVQDYPPLNDIPGSYTAQFEHTILLHAHKKEVVSKGDDYGKMRFQMASSLGIILL
modifications: N-terminal HA tag; Yeast MetAP2
Turning to B1, the “colony size / growth relative to map1Δ with vector alone” value in data set [1] is “largest observed”. In data set [2], the Specific activity is reported as 11±0.5 U/mg.
